We go through 2 molecules from article PMC12140320, “MeCP2 Lactylation Protects against Ischemic Brain Injury by Transcriptionally Regulating Neuronal Apoptosis”.

This data set concerns the target MeCP2 WT (human) (Homo sapiens, UniProt P51608 1-486). In words: EMSA; 50-100 nM protein; EMSA: 10 mM HEPES pH 7.6, 50 mM KCl, 1 mM EDTA, 0.05% Triton X-100, 5% glycerol, 1 mM DTT; 50-100 nM protein, 2 nM biotin probe; room temperature 30 min; 6% native PAGE, 0.5x TBE, 4 C. The conditions noted are these: protein: recombinant; (Ni resin); label: biotin; blunt.

Chain of MeCP2 WT (human) (P51608 whole entry): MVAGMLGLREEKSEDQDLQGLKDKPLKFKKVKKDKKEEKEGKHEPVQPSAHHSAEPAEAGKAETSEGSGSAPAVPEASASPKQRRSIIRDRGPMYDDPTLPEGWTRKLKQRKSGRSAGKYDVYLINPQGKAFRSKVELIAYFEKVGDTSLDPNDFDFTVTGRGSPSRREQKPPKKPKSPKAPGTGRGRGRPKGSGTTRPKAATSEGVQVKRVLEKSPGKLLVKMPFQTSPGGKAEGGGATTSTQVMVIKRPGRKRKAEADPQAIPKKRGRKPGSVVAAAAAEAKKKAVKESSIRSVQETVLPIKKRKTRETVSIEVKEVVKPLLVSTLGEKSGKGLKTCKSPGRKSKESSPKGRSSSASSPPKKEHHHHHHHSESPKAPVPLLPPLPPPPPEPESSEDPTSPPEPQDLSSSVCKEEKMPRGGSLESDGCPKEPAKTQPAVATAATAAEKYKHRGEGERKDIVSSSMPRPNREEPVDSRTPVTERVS

B1: human-Pdcd4 mCpG probe (dsDNA)
DNA 1: GCGCATGCGCCCTCCCGCGCCCCTCCCC
DNA 2: GGGGAGGGGCGCGGGAGGGCGCATGCGC
modifications: 5-methyl-dC at CpG, both strands; printed '(5-Methyl dC)CG' read as mCG to match the unmethylated probe
Consider B1, for which the binding result is on record as “binds”.

B2: human-Pla2g6 mCpG probe (dsDNA)
DNA 1: GCGCATGCGCCCTCCCGCGCCCCTCCCC
DNA 2: GGGGAGGGGCGCGGGAGGGCGCATGCGC
modifications: 5-methyl-dC at CpG, both strands; printed sequence identical to human-Pdcd4 probe (possible error in paper)
In the case of B2, the binding result was “binds”.
